Measurements taken from US20240067728A1 (BIO THERA SOLUTIONS, published 2024).
Where two headings read alike, the source gives them in different places.

Columns and labels:
[1] = molecular target: T1, PD-L1-His antigen (human, UniProt Q9NZQ7 19-238); assay: SPR (Biacore T200), PD-L1-His immobilised on chip, antibody as mobile phase, 1:1 Binding fit
T1 construct: Human PD-L1 ECD with C-terminal 8xHIS tag, expressed in HEK293F; also called hPDL1-His; human PD-L1-His

[2] = molecular target: T2, PD-L1 on CHO-PD-L1 cells (Promega PD-1/PD-L1 Blockade Bioassay) (UniProt Q9NZQ7 19-290, limits assumed); assay: cell-based or functional assay
T2 sequence (Q9NZQ7 19-290 limits assumed): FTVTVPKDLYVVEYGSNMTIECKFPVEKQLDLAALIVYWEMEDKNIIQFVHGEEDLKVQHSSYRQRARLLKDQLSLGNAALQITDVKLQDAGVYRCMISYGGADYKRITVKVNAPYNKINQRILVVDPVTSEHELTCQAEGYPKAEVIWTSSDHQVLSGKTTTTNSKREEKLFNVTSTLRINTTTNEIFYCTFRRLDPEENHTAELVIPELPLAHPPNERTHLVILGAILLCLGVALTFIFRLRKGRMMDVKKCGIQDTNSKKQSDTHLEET

[3] = molecular target: T3, human PD-L1 on PD-L1-CHO cells (human, UniProt Q9NZQ7 19-290); assay: FACS on PD-L1-CHO cells, PE-labeled anti-human Fc secondary antibody; MFI(Mean) against Con(nM)
T3 construct: whole, on cells; also called CHO cells overexpressing human PD-L1; PD-L1 expressed on the cell surface
T3 sequence (Q9NZQ7 19-290): as the sequence (Q9NZQ7 19-290 limits assumed) above

[4] = molecular target: T2, PD-L1 on CHO-PD-L1 cells (Promega …); assay: cell-based or functional assay; remark: listed apart in the source
[5] = molecular target: T2, PD-L1 on CHO-PD-L1 cells (Promega …); assay: cell-based or functional assay; remark: listed apart in the source
[6] = molecular target: T3, human PD-L1 on PD-L1-CHO cells; assay: FACS on PD-L1-CHO cells, PE-labeled anti-human Fc secondary antibody; MFI(Mean) against Con(nM); remark: listed apart in the source
[7] = molecular target: T1, PD-L1-His antigen; assay: SPR (Biacore), method of Example 5, 1:1 Binding fit
[8] = molecular target: T4, CD47-His antigen (human, UniProt Q08722 19-139); assay: as above
T4 construct: Human CD47 ECD with C-terminal 8xHIS tag, expressed in HEK293F; also called hCD47-His; human CD47-His

[9] = molecular target: T4, CD47-His antigen; assay: SPR (Biacore), method of Example 5, Two State Reaction fit
[10] = molecular target: T5, human CD47 on CD47-CHO cells (human, UniProt Q08722 19-323); assay: FACS on CD47-CHO cells, PE-labeled anti-human Fc secondary antibody; MFI(Mean) against Con(nM)
T5 construct: whole, on cells; also called CHO cells overexpressing human CD47; CD47 expressed on the cell surface

[11] = molecular target: T4, CD47-His antigen; assay: SPR (Biacore), method of Example 5, 1:1 Binding fit; remark: listed apart in the source

T1 sequence (Q9NZQ7 other isoform, or with tags, fused parts or gaps limits assumed): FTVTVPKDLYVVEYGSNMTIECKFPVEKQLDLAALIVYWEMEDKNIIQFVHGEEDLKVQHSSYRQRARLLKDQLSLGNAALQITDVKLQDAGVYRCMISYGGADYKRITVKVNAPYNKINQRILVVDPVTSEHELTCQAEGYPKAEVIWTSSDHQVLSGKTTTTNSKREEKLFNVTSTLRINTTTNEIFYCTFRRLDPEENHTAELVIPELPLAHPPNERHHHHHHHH

Kd [1]	EC50 (luciferase reporter, PD-1/PD-L1 blockade MOA assay; blocked partner: PD-1 on Jurkat-PD1 cells) [2]	EC50 (read off the curve) [2]	EC50 (read off the curve) [3]	EC50 (luciferase reporter, PD-1/PD-L1 blockade MOA assay; blocked partner: PD-1 on Jurkat-PD1 cells) [4]	Kd [7]	Kd [8]	Kd [9]	Binder	further results
0.282 nM	0.224 µg/mL	~1 µg/mL	~0.6 nM					L1-R2-4-46 (antibody, human IgG1, kappa, V domains shown) VH: EVQLVESGGGLVQPGGSLRLSCAASGFTFSDSWIHWVRQAPGKGLEWVGWISPYGGSTYYADSLGDRFTISADTSKNTAYLQMNSLRAEDTAVYYCARRHWPGGFDYWGQGTLVTVSS VL: EIVLTQSPSSLSASVGDRVTITCLASQTIGTWLAWYQQKPGKSPQLLIYAASTLQSGVPSRFSGSGSGTDFTLTISSLQPEDVATYYCQQYYSTPRTFGQGTKVEIKR	
0.341 nM	0.148 µg/mL	~1 µg/mL	~0.6 nM					L1-R2-4-36 (antibody, human IgG1, kappa, V domains shown) VH: EVQLVESGGGLVQPGGSLRLSCAASGFTFSDSWIHWVRQAPGKGLEWVGWISPYGGSTYYADDFRHRFTISADTSKNTAYLQMNSLRAEDTAVYYCARRHWPGGFDYWGQGTLVTVSS VL: EIVLTQSPSSLSASVGDRVTITCLASQTIGTWLAWYQQKPGKSPQLLIYAASTLQSGVPSRFSGSGSGTDFTLTISSLQPEDVATYYCQQYYSTPRTFGQGTKVEIKR	
0.282 nM	0.382 µg/mL	~2 µg/mL	~0.6 nM	0.292 µg/mL				L1-R2-4-71 (antibody, human IgG1, kappa, V domains shown, also called parental anti-PD-L1 antibody L1-R2-4-71) VH: EVQLVESGGGLVQPGGSLRLSCAASGFTFSDSWIHWVRQAPGKGLEWVGWISPYGGSTYYADSYRSRFTISADTSKNTAYLQMNSLRAEDTAVYYCARRHWPGGFDYWGQGTLVTVSS VL: EIVLTQSPSSLSASVGDRVTITCLASQTIGTWLAWYQQKPGKSPQLLIYAASTLQSGVPSRFSGSGSGTDFTLTISSLQPEDVATYYCQQYYSTPRTFGQGTKVEIKR	EC50 (luciferase reporter, PD-1/PD-L1 blockade MOA assay; blocked partner: PD-1 on Jurkat-PD1 cells) [5]: 0.087 µg/mL; EC50 (read off the curve) [6]: ~0.2 nM
0.29 nM	0.389 µg/mL	~2 µg/mL	~0.6 nM					L1-R2-4-47 (antibody, human IgG1, kappa, V domains shown) VH: EVQLVESGGGLVQPGGSLRLSCAASGFTFSDSWIHWVRQAPGKGLEWVGWISPYGGSTYYADHLSQRFTISADTSKNTAYLQMNSLRAEDTAVYYCARRHWPGGFDYWGQGTLVTVSS VL: EIVLTQSPSSLSASVGDRVTITCLASQTIGTWLAWYQQKPGKSPQLLIYAASTLQSGVPSRFSGSGSGTDFTLTISSLQPEDVATYYCQQYYSTPRTFGQGTKVEIKR	
0.371 nM	0.401 µg/mL	~2 µg/mL						L1-R2-4-55 (antibody, human IgG1, kappa, V domains shown) VH: EVQLVESGGGLVQPGGSLRLSCAASGFTFSDSWIHWVRQAPGKGLEWVGWISPYGGSTYYADGMRSRFTISADTSKNTAYLQMNSLRAEDTAVYYCARRHWPGGFDYWGQGTLVTVSS VL: EIVLTQSPSSLSASVGDRVTITCLASQTIGTWLAWYQQKPGKSPQLLIYAASTLQSGVPSRFSGSGSGTDFTLTISSLQPEDVATYYCQQYYSTPRTFGQGTKVEIKR	
				0.285 µg/mL	0.174 nM	27.8 nM	3.78 nM	BsAb-71 (bispecific antibody, human IgG1, kappa, Knob-into-hole IgG1-like bispecific with common light chain; first heavy chain is the anti-PD-L1 arm, second the anti-CD47 arm; also called anti-PD-L1/CD47 bispecific antibody BsAb-71) heavy 1: not shown heavy 2: not shown light: EIVLTQSPSSLSASVGDRVTITCLASQTIGTWLAWYQQKPGKSPQLLIYAASTLQSGVPSRFSGSGSGTDFTLTISSLQPEDVATYYCQQYYSTPRTFGQGTKVEIKRTVAAPSVFIFPPSDEQLKSGTASVVCLLNNFYPREAKVQWKVDNALQSGNSQESVTEQDSKDSTYSLSSTLTLSKADYEKHKVYACEVTHQGLSSPVTKSFNRGEC	
			~0.8 nM	0.295 µg/mL	0.223 nM	28.4 nM	4.77 nM	BsAb-47 (bispecific antibody, human IgG1, kappa, Knob-into-hole IgG1-like bispecific with common light chain; first heavy chain is the anti-PD-L1 arm, second the anti-CD47 arm; also called anti-PD-L1/CD47 bispecific antibody BsAb-47) heavy 1: not shown heavy 2: not shown light: EIVLTQSPSSLSASVGDRVTITCLASQTIGTWLAWYQQKPGKSPQLLIYAASTLQSGVPSRFSGSGSGTDFTLTISSLQPEDVATYYCQQYYSTPRTFGQGTKVEIKRTVAAPSVFIFPPSDEQLKSGTASVVCLLNNFYPREAKVQWKVDNALQSGNSQESVTEQDSKDSTYSLSSTLTLSKADYEKHKVYACEVTHQGLSSPVTKSFNRGEC	EC50 (read off the curve) [10]: ~4 nM
			~0.7 nM	0.208 µg/mL	0.352 nM	28 nM	4.49 nM	BsAb-36 (bispecific antibody, human IgG1, kappa, Knob-into-hole IgG1-like bispecific with common light chain; first heavy chain is the anti-PD-L1 arm, second the anti-CD47 arm; also called anti-PD-L1/CD47 bispecific antibody BsAb-36) heavy 1: not shown heavy 2: not shown light: EIVLTQSPSSLSASVGDRVTITCLASQTIGTWLAWYQQKPGKSPQLLIYAASTLQSGVPSRFSGSGSGTDFTLTISSLQPEDVATYYCQQYYSTPRTFGQGTKVEIKRTVAAPSVFIFPPSDEQLKSGTASVVCLLNNFYPREAKVQWKVDNALQSGNSQESVTEQDSKDSTYSLSSTLTLSKADYEKHKVYACEVTHQGLSSPVTKSFNRGEC	
								BsAb-71-N297A (bispecific antibody, human IgG1, kappa, N297A, BsAb-71 with the N297A mutation in the Fc region; also called anti-PD-L1/CD47 bispecific antibody BsAb-71-N297A) heavy 1: EVQLVESGGGLVQPGGSLRLSCAASGFTFSDSWIHWVRQAPGKGLEWVGWISPYGGSTYYADSYRSRFTISADTSKNTAYLQMNSLRAEDTAVYYCARRHWPGGFDYWGQGTLVTVSSASTKGPSVFPLAPSSKSTSGGTAALGCLVKDYFPEPVTVSWNSGALTSGVHTFPAVLQSSGLYSLSSVVTVPSSSLGTQTYICNVNHKPSNTKVDKKVEPKSCDKTHTCPPCPAPELLGGPSVFLFPPKPKDTLMISRTPEVTCVVVDVSHEDPEVKFNWYVDGVEVHNAKTKPREEQYASTYRVVSVLTVLHQDWLNGKEYKCKVSNKALPAPIEKTISKAKGQPREPQVYTLPPCRDELTKNQVSLWCLVKGFYPSDIAVEWESNGQPENNYKTTPPVLDSDGSFFLYSKLTVDKSRWQQGNVFSCSVMHEALHNHYTQKSLSLSPGK heavy 2: not shown light: EIVLTQSPSSLSASVGDRVTITCLASQTIGTWLAWYQQKPGKSPQLLIYAASTLQSGVPSRFSGSGSGTDFTLTISSLQPEDVATYYCQQYYSTPRTFGQGTKVEIKRTVAAPSVFIFPPSDEQLKSGTASVVCLLNNFYPREAKVQWKVDNALQSGNSQESVTEQDSKDSTYSLSSTLTLSKADYEKHKVYACEVTHQGLSSPVTKSFNRGEC	EC50 (luciferase reporter, PD-1/PD-L1 blockade MOA assay; blocked partner: PD-1 on Jurkat-PD1 cells) [5]: 0.164 µg/mL; EC50 (read off the curve) [6]: ~0.5 nM
			~0.8 nM	0.143 µg/mL	0.371 nM	29.1 nM	3.95 nM	BsAb-46 (bispecific antibody, human IgG1, kappa, Knob-into-hole IgG1-like bispecific with common light chain; first heavy chain is the anti-PD-L1 arm, second the anti-CD47 arm; also called anti-PD-L1/CD47 bispecific antibody BsAb-46) heavy 1: not shown heavy 2: not shown light: EIVLTQSPSSLSASVGDRVTITCLASQTIGTWLAWYQQKPGKSPQLLIYAASTLQSGVPSRFSGSGSGTDFTLTISSLQPEDVATYYCQQYYSTPRTFGQGTKVEIKRTVAAPSVFIFPPSDEQLKSGTASVVCLLNNFYPREAKVQWKVDNALQSGNSQESVTEQDSKDSTYSLSSTLTLSKADYEKHKVYACEVTHQGLSSPVTKSFNRGEC	
								47-R2-78 (antibody, human IgG1, kappa, V domains shown, Anti-CD47 monoclonal antibody, L12-6-VH with light chain R2-78) VH: QVQLQESGPGLVKPSETLSLTCTVSGGSLDNYYWSWIRQPPGKGLEWIGYIYYSGNTNYNPSLKSRVTISVDTSKNQFSLKLSSVTAADTAVYYCARGGRFLERYWGQGTLVTVSS VL: DIQMTQSPSSFSASTGDRVTITCRASQGISSYLAWYQQKPGKAPKLLIYAASRLQSGVPSRFSGSGSGTDFTLTISSLQAEDVAVYYCQQYYSTPYTFGQGTKVDIKR	Kd [11]: 655 nM
								47-R2-6 (antibody, human IgG1, kappa, V domains shown, Anti-CD47 monoclonal antibody, L12-6-VH with light chain R2-6) VH: QVQLQESGPGLVKPSETLSLTCTVSGGSLDNYYWSWIRQPPGKGLEWIGYIYYSGNTNYNPSLKSRVTISVDTSKNQFSLKLSSVTAADTAVYYCARGGRFLERYWGQGTLVTVSS VL: EIVLTQSPSSVSASVGDKLTMTCQASQDIGKHLNWYQQKPGKPPKLLIYGASNLKTGVPSRFSGTGSGTDFTLTISSLQPEDFATYYCQQSYTTPYTFGQGTRLEIKR	Kd [11]: 1.11 nM
								47-R2-85 (antibody, human IgG1, kappa, V domains shown, Anti-CD47 monoclonal antibody, L12-6-VH with light chain R2-85) VH: QVQLQESGPGLVKPSETLSLTCTVSGGSLDNYYWSWIRQPPGKGLEWIGYIYYSGNTNYNPSLKSRVTISVDTSKNQFSLKLSSVTAADTAVYYCARGGRFLERYWGQGTLVTVSS VL: DIQMTQSPSSLSASVGDRVTIPCRASQGIGKFLAWYQQKPGKAPSLLIYAASSLQSGVPSRFSGSGSGTDFTLTISSLQTEDVAVYYCQQYFSTPYTFGQGTKVDIKR	Kd [11]: 275 nM
